Here are results for 5 substances from publication PMC6539845.

Read-outs that look alike come from different tables or passages of the source.

The target of assay [1] is single-ring α7 mutant α7^SR (S96D, S100D, F102R, Y104R) (human). The assay can be described thus: atomic force microscopy; α7^SR alone (Figure S2); height of the ring.
For assay [2] the target is unchanged. The assay can be described thus: native MS; single proteins, 5–20 μM monomers, 150 mM ammonium acetate (pH 6.8–8.0), nanoflow electrospray.
The target is the same in assay [3]. Described as above. This is another data set of the same source.
The target is the same in assay [4]. The assay can be described thus: native MS; α4 or α6 (4 μM monomers) mixed with α7^SR (4 μM heptamer), 20 °C, 1 h; α2 incubated with α7^SR before buffer exchange; 150 mM ammonium acetate.
Assay [5] deals with monomeric α7 mutant α7* (N-terminal residues 1-22 replaced with a hexahistidine-containing segment) (human) (UniProt P25788). The assay can be described thus: SEC; α1–α6 (20 μM monomers) mixed with an equimolar amount of α7*, 20 °C, 1 h; SDS-PAGE (CBB) of the purified complexes. For orientation: In gel filtration, larger molecules generally elute earlier.
Assay [6] concerns the target human proteasome α7 subunit, wild type (human) (UniProt P25788). The assay can be described thus: native MS; α4 or α6 (4 μM monomers) mixed with α7 (2 μM tetradecamer), 20 °C, 1 h, 150 mM ammonium acetate.
Assay [7] has the same target. Described as above. This is another data set of the same source.
The target is the same in assay [8]. The assay can be described thus: SEC; wild-type α7 in the presence of α1–α6 or α7* (20 μM monomers); loss of the tetradecamer peak.
In assay [9] the target is human proteasome α6 subunit, short isoform (human) (UniProt P25786). The assay can be described thus: native MS; single proteins, 5–20 μM monomers, 150 mM ammonium acetate (pH 6.8–8.0), nanoflow electrospray.
Assay [10] deals with human proteasome α7 subunit, wild type (human) (UniProt P25788). Described as above.
Chain of human proteasome α7 subunit, wild type (human) (P25788 whole entry): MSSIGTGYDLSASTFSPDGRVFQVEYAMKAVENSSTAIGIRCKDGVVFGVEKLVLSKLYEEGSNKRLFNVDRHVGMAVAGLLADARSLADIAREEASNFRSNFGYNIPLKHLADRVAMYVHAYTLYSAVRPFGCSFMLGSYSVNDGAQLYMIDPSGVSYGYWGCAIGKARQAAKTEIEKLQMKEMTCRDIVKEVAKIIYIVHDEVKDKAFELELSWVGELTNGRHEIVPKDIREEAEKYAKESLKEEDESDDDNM

Chain of human proteasome α6 subunit, short isoform (P25786 whole entry, canonical isoform): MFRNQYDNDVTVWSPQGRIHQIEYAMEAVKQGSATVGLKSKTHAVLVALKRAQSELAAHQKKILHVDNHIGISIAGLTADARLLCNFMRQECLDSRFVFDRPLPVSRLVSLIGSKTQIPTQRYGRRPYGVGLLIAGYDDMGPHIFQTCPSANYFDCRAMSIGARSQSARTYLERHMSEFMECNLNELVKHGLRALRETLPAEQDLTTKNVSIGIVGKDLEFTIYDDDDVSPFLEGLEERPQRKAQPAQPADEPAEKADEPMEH
Chain of human proteasome α4 subunit (O14818 whole entry): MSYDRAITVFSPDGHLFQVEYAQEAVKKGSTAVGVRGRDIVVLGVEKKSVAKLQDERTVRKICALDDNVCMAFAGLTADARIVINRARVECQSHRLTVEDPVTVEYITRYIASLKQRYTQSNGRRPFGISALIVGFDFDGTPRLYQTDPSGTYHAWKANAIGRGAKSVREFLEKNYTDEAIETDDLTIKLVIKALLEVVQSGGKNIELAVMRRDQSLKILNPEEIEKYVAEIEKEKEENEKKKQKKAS
Chain of human proteasome α2 subunit (P25787 whole entry): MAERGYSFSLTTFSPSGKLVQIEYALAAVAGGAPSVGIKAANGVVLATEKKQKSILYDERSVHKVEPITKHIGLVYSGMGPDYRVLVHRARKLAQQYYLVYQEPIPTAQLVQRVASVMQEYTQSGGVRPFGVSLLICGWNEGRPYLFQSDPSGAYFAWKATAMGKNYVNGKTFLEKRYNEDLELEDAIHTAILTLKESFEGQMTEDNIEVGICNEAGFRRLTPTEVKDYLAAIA
Chain of human proteasome α7 subunit, wild type (P25788 whole entry): as the sequence (P25788 whole entry) above

As for “single-ring α7 mutant α7^SR (S96D, S100D, F102R, Y104R) (natural protein)”, the figures for the stoichiometry N in assay [1], in assay [2] and in [3] were 7, 14 and 7, respectively.

For “human proteasome α4 subunit (from UniProt O14818 1-248) (natural protein)”, in assay [4], the stoichiometry N (α7^SR subunits per α4) was found to be 7. For the same substance, the stoichiometry N (in general, a count of units in the complex or per binding partner) in assay [5] is 1.2 α7· per α4.

For the substance “human proteasome α6 subunit, short isoform (from UniProt P25786 1-263) (natural protein)”, in assay [4], the stoichiometry N (α7^SR subunits per α6) worked out at 7. The figures for the stoichiometry N (α7 subunits per α6) in assay [6] and in [7] were 14 and 7, respectively. In addition, the percent of the α7 tetradecamer disrupted into smaller complexes in [8] amounted to 50%. In assay [9], this substance had a stoichiometry N of 2.

“human proteasome α7 subunit, wild type (from UniProt P25788 1-255) (natural protein)” came in with a stoichiometry N in [10] of 14.

Substance “human proteasome α2 subunit (from UniProt P25787 1-234) (natural protein)” gave a stoichiometry N (α7^SR subunits per α2) in assay [4] of 7.
